According to patent US20250186594A1 (BRIGHT PEAK THERAPEUTICS, published 2025):

T1: Fc fused human IL-18Rα (human, UniProt Q13478 19-329, limits assumed)
T1 construct: also called IL-18Rα monomer; human IL-18 receptor alpha (CD218a); not shown: Fc
T1 sequence (looked up): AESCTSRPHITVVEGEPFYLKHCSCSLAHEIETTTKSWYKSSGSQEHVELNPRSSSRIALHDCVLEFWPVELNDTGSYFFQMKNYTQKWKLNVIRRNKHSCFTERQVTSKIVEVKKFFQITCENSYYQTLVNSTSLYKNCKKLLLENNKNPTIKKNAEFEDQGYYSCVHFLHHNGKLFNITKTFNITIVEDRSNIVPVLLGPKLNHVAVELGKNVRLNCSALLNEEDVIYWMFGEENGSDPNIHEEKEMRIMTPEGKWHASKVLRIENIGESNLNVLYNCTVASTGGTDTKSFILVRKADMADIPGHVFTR

T2: IL-18Rα/β heterodimer (Fc fused human IL-18Rα mixed with Fc fused human IL-18Rβ) (human, UniProt Q13478 19-329; O95256 20-356, limits assumed)
T2 construct: Alpha and beta Fc fusions were mixed and pre-incubated for 30 min before capture on anti-human IgG; also called alpha/beta heterodimer IL-18 receptor; heterodimeric human IL-18 receptor alpha (CD218a) and IL-18R accessory protein (IL-18RAP/CDw218b); not shown: Fc
T2 sequence (looked up) 1: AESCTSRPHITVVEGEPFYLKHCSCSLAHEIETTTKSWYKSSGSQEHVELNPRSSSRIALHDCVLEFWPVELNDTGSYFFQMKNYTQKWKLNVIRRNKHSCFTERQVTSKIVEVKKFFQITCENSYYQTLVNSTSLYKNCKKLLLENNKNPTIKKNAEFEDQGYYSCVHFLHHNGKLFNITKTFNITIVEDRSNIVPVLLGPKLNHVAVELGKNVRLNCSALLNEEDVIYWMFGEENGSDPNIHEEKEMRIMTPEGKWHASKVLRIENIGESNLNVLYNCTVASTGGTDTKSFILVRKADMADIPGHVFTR
T2 sequence (looked up) 2: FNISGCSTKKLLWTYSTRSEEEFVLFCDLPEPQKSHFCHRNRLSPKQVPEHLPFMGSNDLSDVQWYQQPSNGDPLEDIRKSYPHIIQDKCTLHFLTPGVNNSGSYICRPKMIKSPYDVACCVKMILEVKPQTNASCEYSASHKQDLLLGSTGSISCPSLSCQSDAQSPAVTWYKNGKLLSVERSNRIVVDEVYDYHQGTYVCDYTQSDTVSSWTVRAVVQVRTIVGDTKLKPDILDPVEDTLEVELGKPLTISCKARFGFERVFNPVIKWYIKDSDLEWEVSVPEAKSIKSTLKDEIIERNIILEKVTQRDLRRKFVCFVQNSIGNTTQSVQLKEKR

T3: IL-18 receptor (IL-18R) on HEK-Blue IL18R reporter cells (UniProt Q13478 19-541; O95256 20-599, limits assumed)
T3 sequence (looked up) 1: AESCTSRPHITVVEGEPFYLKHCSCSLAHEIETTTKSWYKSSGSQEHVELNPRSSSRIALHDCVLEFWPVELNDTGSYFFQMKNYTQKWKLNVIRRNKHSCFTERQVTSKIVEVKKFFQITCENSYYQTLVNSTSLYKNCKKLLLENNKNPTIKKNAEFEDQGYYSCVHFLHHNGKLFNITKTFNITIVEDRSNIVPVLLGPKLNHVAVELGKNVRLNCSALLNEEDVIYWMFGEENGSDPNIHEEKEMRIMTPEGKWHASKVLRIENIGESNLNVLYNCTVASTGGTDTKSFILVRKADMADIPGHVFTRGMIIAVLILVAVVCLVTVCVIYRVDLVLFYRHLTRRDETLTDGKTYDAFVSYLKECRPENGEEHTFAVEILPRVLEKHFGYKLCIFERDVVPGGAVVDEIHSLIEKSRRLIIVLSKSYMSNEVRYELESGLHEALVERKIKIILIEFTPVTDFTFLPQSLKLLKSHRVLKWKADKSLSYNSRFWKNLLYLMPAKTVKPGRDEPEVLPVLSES
T3 sequence (looked up) 2: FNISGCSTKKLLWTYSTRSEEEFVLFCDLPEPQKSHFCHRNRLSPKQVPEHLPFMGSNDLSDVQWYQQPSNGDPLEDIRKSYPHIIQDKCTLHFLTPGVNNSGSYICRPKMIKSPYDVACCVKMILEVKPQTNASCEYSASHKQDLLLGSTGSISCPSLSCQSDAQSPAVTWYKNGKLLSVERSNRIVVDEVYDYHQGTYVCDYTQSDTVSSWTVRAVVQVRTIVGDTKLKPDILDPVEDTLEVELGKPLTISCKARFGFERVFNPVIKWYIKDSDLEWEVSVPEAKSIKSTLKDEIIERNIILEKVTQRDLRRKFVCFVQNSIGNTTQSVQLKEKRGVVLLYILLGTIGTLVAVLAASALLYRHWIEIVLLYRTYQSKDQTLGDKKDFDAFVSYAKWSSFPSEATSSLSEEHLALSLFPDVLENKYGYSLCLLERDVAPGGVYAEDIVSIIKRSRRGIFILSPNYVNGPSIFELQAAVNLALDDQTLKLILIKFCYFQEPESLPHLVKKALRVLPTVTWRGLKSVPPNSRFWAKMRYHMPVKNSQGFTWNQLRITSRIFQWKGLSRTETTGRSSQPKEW


What was measured:
Fc fused human IL-18Rα = biological target: T1, Fc fused human IL-18Rα; test: SPR, Fc-IL-18Rα captured, 1:1 fit
Experimental: (§1) The interaction of the wild type and of modified IL-18 polypeptides with human IL-18 receptor subunits are measured with Surface Plasmon Resonance (SPR) technology. Anti-human IgG antibodies are bound by amine coupling onto a CM5 chip to capture 6 µg/mL of Fc fused human IL-18Rα, […] of Fc fused human IL-18Rβ, or […] of Fc fused human IL-18BP isoform a (IL-18BPa) for 30 min before capture. In other settings, […] of alpha and beta IL-18 receptors are mixed and pre-incubated for 30 min before capture of the alpha/beta heterodimer IL-18 receptor.
(§2) The kinetic binding of the IL-18 analytes are measured with a Biacore 8K instrument in two fold serial dilutions starting at […] down to 0.98 nM. Regeneration of the surface back to amine coupled anti IgG antibody is done after every concentration of analyte. To measure the protein association to the receptors, the samples are injected with a flow rate of […] for 60 s, followed by 300 s buffer only to detect the dissociation. The used running buffer is 1×PBS with 0.05% Tween20. The relative response units (RU, Y-axis) are plotted against time (s, X-axis) and analyzed in a kinetic 1:1 binding model for the monomer receptor binding and for the binding to the IL-18BP. A kinetic heterogenous ligand fit model is applied for the alpha/beta heterodimer binding.

[1] = biological target: T2, IL-18Rα/β heterodimer (Fc fused human …); test: SPR, Fc-IL-18Rα/β captured, heterogeneous ligand fit
Experimental: as §1, §2

[2] = biological target: T3, IL-18 receptor (IL-18R) on HEK-Blue …; test: cell-based or functional assay

Binder	Kd (Fc fused human IL-18Rα)	koff (Fc fused human IL-18Rα)	kon (Fc fused human IL-18Rα)	Kd [1]	koff [1]	kon [1]	EC50, HEK-Blue IL18R reporter [2]
IL-18 variant SEQ ID NO: 30 with 10 kDa PEG (E6K, V11I, C38A, K53A, T63A, C76A, C127A, C68-10kPEG) (ligand, 10 kDa PEG on Cys 68 (C68-10kPEG), also called 30 + PEG10) YFGKLKSKLSIIRNLNDQVLFIDQGNRPLFEDMTDSDARDNAPRTIFIISMYADSQPRGMAVAISVKCEKISTLSAENKIISFKEMNPPDNIKDTKSDIIFFQRSVPGHDNKMQFESSSYEGYFLAAEKERDLFKLILKKEDELGDRSIMFTVQNED	239 nM	0.0779 s⁻¹	326000 M⁻¹ s⁻¹	8.7 nM	0.00105 s⁻¹	120000 M⁻¹ s⁻¹	–
IL-18 variant SEQ ID NO: 59 with 30 kDa PEG (E6K, C38A, K53A, C68-30kDPEG) (ligand, 30 kDa PEG on Cys 68 (C68-30kDPEG), also called 59 + PEG30; 59 + PEG) YFGKLKSKLSVIRNLNDQVLFIDQGNRPLFEDMTDSDARDNAPRTIFIISMYADSQPRGMAVTISVKCEKISTLSCENKIISFKEMNPPDNIKDTKSDIIFFQRSVPGHDNKMQFESSSYEGYFLACEKERDLFKLILKKEDELGDRSIMFTVQNED	352 nM	0.0264 s⁻¹	74600 M⁻¹ s⁻¹	8.02 nM	0.00058 s⁻¹	84500 M⁻¹ s⁻¹	–
IL-18 variant SEQ ID NO: 30 with 20 kDa PEG (E6K, V11I, C38A, K53A, T63A, C76A, C127A, C68-20kPEG) (ligand, 20 kDa PEG on Cys 68 (C68-20kPEG), also called 30 + PEG20) YFGKLKSKLSIIRNLNDQVLFIDQGNRPLFEDMTDSDARDNAPRTIFIISMYADSQPRGMAVAISVKCEKISTLSAENKIISFKEMNPPDNIKDTKSDIIFFQRSVPGHDNKMQFESSSYEGYFLAAEKERDLFKLILKKEDELGDRSIMFTVQNED	379 nM	0.0805 s⁻¹	213000 M⁻¹ s⁻¹	5.49 nM	0.000637 s⁻¹	116000 M⁻¹ s⁻¹	–
IL-18 variant SEQ ID NO: 57 with 30 kDa PEG (E6K, C38S, K53A, C68-30kDPEG) (ligand, 30 kDa PEG on Cys 68 (C68-30kDPEG), also called 57 + PEG30; 57 + PEG) YFGKLKSKLSVIRNLNDQVLFIDQGNRPLFEDMTDSDSRDNAPRTIFIISMYADSQPRGMAVTISVKCEKISTLSCENKIISFKEMNPPDNIKDTKSDIIFFQRSVPGHDNKMQFESSSYEGYFLACEKERDLFKLILKKEDELGDRSIMFTVQNED	701 nM	0.0267 s⁻¹	37900 M⁻¹ s⁻¹	23 nM	0.000787 s⁻¹	33800 M⁻¹ s⁻¹	–

Further lines, results first:

Kd (Fc fused human IL-18Rα)	koff (Fc fused human IL-18Rα)	kon (Fc fused human IL-18Rα)	Kd [1]	koff [1]	kon [1]	EC50, HEK-Blue IL18R reporter [2]	Binder
30.4 nM	0.0674 s⁻¹	2.22e+06 M⁻¹ s⁻¹	1.01 nM	0.0011 s⁻¹	1.09e+06 M⁻¹ s⁻¹	0.084 nM	IL-18 variant SEQ ID NO: 61 (E6K, C38A, K53A, C76A) (ligand) YFGKLKSKLSVIRNLNDQVLFIDQGNRPLFEDMTDSDARDNAPRTIFIISMYADSQPRGMAVTISVKCEKISTLSAENKIISFKEMNPPDNIKDTKSDIIFFQRSVPGHDNKMQFESSSYEGYFLACEKERDLFKLILKKEDELGDRSIMFTVQNED
9.85 nM	0.0102 s⁻¹	1.03e+06 M⁻¹ s⁻¹	0.49 nM	0.000589 s⁻¹	1.21e+06 M⁻¹ s⁻¹	0.203 nM	IL-18 variant SEQ ID NO: 60 (E6K, C38Q, K53A) (ligand) YFGKLKSKLSVIRNLNDQVLFIDQGNRPLFEDMTDSDQRDNAPRTIFIISMYADSQPRGMAVTISVKCEKISTLSCENKIISFKEMNPPDNIKDTKSDIIFFQRSVPGHDNKMQFESSSYEGYFLACEKERDLFKLILKKEDELGDRSIMFTVQNED
